Patent US20240384250A1, “FIBROBLAST GROWTH FACTOR 23 MODULATING COMPOUNDS” (THE UAB RESEARCH FOUNDATION, priority 2021, published 2024)
“Also recorded” adds a separate entry of the source.

Legend:
[1] = test system: intact hearts isolated from adult mice; assay: Isolated heart contractility; set-up: species or system mouse; settings: FGF23 9 ng/ml, 30 minutes
Description: Isolated heart contractility was performed as described previously. 14,70,71 Briefly, 2- to 3-month-old male CD-1 mice were anesthetized using 3% isoflurane and hearts were carefully removed and placed into oxygenated Ringer's solution composed of 140 mM NaCl, 2.0 mM KCl, 2.5 mM CaCl2), 1.0 mM MgSO4, 1.5 mM K2HPO4, 10 mM N-2-hydroxyethylpiperazine-N-2-ethanesulfonic acid, and 10 mM glucose (pH 7.4). Atria were then removed, and the intact ventricular muscle was attached to small metallic clips hung vertically from a force transducer (ADInstruments) between bipolar platinum-stimulating electrodes and suspended in 25-ml glass tissue chambers (ADInstruments). Heart muscles were perfused with Ringer's solution continuously bubbled with 100% O2 at room temperature. Hearts were stretched to the length of maximum force development and paced at 1 Hz (5 ms pulse duration, 30-60 V; Grass Instruments SD9 Square Pulse Stimulator). After a stable baseline was obtained, hearts were treated with either vehicle or FGF23 (9 ng/ml) alone or in combination with heparin (0.06 USP/ml) while contractile force output was monitored for 30 minutes. Contractile data were recorded and analyzed with LabChart 8 software (ADInstruments). Waveform changes were analyzed for peak contraction force (in millinewtons) and maximum slope of force development and presented as fold change from baseline values.

FGF23 and FGFR1c = assay: sKL detection assay (FGF23 coated, Fc-FGFR1c detection); assay type: binding
Description: Commercially available ELISA plates (Maxisorp) are coated with 5 μg/ml of recombinant FGF23 protein (R&D Systems) and unspecific binding sites are blocked with BSA/Tween20. Wells are incubated with sKL in solution (which can be plasma, serum or cell culture supernatants) for one hour, washed and incubated for one hour with 750 ng/ml of recombinant FGFR1α(IIIc)-Fc (R&D Systems), which is a chimeric protein consisting of the FGFR1 ectodomain and the Fc region of a human IgG. FGFR1 only binds to FGF23 in the presence of sKL, and the formation of this trimeric sandwich complex is then measured by detecting the presence of the Fc domain that is coupled to FGFR1. To do so, wells are washed and incubated with 400 ng/ml of anti-human IgG conjugated to horseradish peroxidase (HRP; Promega). Wells are washed and incubated with HRP substrate. After development for about 30 minutes, reactions are analyzed on a standard plate reader via absorptions at […]. Incubations with recombinant sKL dissolved in PBS at defined concentrations serve as standards that are used as reference values to determine sKL concentrations in the studied human samples. […]
HEK293 cells were plated in 10 cm dishes supplemented with 10% FBS (26140079, Gibco) and I× Pen/Strep (15140122, Gibco). Cells were transfected with appropriate klotho or green fluorescent protein cDNA constructs. After 2 days, clones were selected by using 1 μg/ml of puromycin (A1113803, Gibco). Cells were then split and plated in 10 cm dishes in DMEM supplemented with FBS and puromycin. After 48 hours, cells were lysed in 1 ml of RIPA buffer with the addition of a protease inhibitor (11873580001, Roche) for 30 minutes. The mixture was then centrifuged at 20,000 g for 1 hour to remove all cell debris. Activity assay was run as above in the sKL halflife study. Instead of serum, 20 μl of the indicated cell lysate was used and combined with 80 μl of activity assay buffer.

FGF23 binding to FGFR1c = target: T1, FGF23 binding to FGFR1c (Homo sapiens, UniProt P11362+Q9GZV9); assay: Plate-based binding, FGF23 coated, then sKL, heparin or PBS, then Fc-FGFR; settings: with sKL, with heparin 0.4 USP, or alone
T1 construct: Fc-coupled FGFR ectodomains were immobilized on protein A/G beads; purchased R&D Systems 2604FG025/CF or 2629FG025/CF; 658FR050
T1 sequence (Q9GZV9 25-251): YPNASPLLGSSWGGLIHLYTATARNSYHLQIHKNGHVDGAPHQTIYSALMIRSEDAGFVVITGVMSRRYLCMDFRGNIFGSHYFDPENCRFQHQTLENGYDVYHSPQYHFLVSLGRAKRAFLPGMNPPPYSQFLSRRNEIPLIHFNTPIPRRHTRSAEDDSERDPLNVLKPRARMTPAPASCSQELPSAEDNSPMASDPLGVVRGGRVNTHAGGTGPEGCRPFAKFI
T1 sequence (P11362 22-376 limits assumed): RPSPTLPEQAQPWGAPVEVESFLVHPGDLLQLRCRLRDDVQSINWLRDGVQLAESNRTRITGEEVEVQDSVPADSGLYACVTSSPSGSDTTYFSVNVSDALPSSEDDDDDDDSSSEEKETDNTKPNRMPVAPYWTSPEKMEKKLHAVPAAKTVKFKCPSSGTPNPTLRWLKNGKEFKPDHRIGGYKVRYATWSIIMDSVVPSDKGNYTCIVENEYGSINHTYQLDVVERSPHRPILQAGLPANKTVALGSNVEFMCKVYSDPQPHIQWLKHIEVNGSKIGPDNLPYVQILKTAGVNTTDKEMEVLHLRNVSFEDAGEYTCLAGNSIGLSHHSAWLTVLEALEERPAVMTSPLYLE
Description: Proteins were coated on 96-well plates (MaxiSorp; 439454, Thermo Fisher Scientific), and proteins were added to wells in 100 μl of enzyme-linked immunosorbent assay (ELISA) coating buffer (E107, Bethyl Laboratories) with a lid placed overtop and incubated at 4° C. overnight. Plates were washed 5× with 350 μl of assay buffer (50 mM Tris [pH 7.4], 200 mM NaCl, 0.01% Tween 20) on a 50 TS microplate washer (BioTek). Plates were blocked for 1 hour in 200 μl of assay buffer with 0.5% BSA. Plates were washed as before, and proteins were incubated on plates in 100 μl of assay buffer with 0.5% BSA. Proteins or heparin was incubated in orders described in the respective figure legends. Assays using FLAG-tag-based detection were incubated with anti-FLAG coupled to HRP at 1:20,000, and assays using Fc detection were incubated with anti-human Fc coupled to HRP at 1:10,000. Plates were washed as above, and 100 μl of 3,3′,5,5′-tetramethylbenzidine (TMB) substrate (E102, Bethyl Laboratories) was added for 15 to 20 minutes until positive wells developed a dark blue color. Reactions were stopped with ELISA stop solution (E115, Bethyl Laboratories) and analyzed using the Synergy HI plate reader (BioTek) at 450 nm wavelength. […] As a control to remove background absorbance values, wells were coated with an equal amount of BSA to match the amount of protein coated in experimental wells and treated the same as experimental wells. To study the effects of sKL on the binding between paracrine FGFs and FGFRs, plates were run as above except coated with paracrine FGFs. Fc-FGFR1 was preincubated with sKL or vehicle for 60 minutes, and then the combination was added to wells and the assay was run as before.

B1: FGF23: recombinant fibroblast growth factor 23 protein from R&D Systems (protein)
chain: YPDTSPLLGSNWGSLTHLYTATARTSYHLQIHRDGHVDGTPHQTIYSALMITSEDAGSVVITGAMTRRFLCMDLHGNIFGSLHFSPENCKFRQWTLENGYDVYLSQKHHYLVSLGRAKRIFQPGTNPPPFSQFLARRNEVPLLHFYTVRPRRHTRSAEDPPERDPLNVLKPRPRATPVPVSCSRELPSAEEGGPAASDPLGVLRRGRGDARGGAGGADRCRPFPRFV
- peak contraction force [1]: increased cardiac contractile force

B2: sKL: recombinant soluble α-klotho ectodomain, mouse aa 35-982 and human aa 34-981, FLAG- or Strep/His-tagged, purified from HEK293 cells (protein)
chain: EPGDGAQTWARFSRPPAPEAAGLFQGTFPDGFLWAVGSAAYQTEGGWQQHGKGASIWDTFTHHPLAPPGDSRNASLPLGAPSPLQPATGDVASDSYNNVFRDTEALRELGVTHYRFSISWARVLPNGSAGVPNREGLRYYRRLLERLRELGVQPVVTLYHWDLPQRLQDAYGGWANRALADHFRDYAELCFRHFGGQVKYWITIDNPYVVAWHGYATGRLAPGIRGSPRLGYLVAHNLLLAHAKVWHLYNTSFRPTQGGQVSIALSSHWINPRRMTDHSIKECQKSLDFVLGWFAKPVFIDGDYPESMKNNLSSILPDFTESEKKFIKGTADFFALCFGPTLSFQLLDPHMKFRQLESPNLRQLLSWIDLEFNHPQIFIVENGWFVSGTTKRDDAKYMYYLKKFIMETLKAIKLDGVDVIGYTAWSLMDGFEWHRGYSIRRGLFYVDFLSQDKMLLPKSSALFYQKLIEKNGFPPLPENQPLEGTFPCDFAWGVVDNYIQVDTTLSQFTDLNVYLWDVHHSKRLIKVDGVVTKKRKSYCVDFAAIQPQIALLQEMHVTHFRFSLDWALILPLGNQSQVNHTILQYYRCMASELVRVNITPVVALWQPMAPNQGLPRLLARQGAWENPYTALAFAEYARLCFQELGHHVKLWITMNEPYTRNMTYSAGHNLLKAHALAWHVYNEKFRHAQNGKISIALQADWIEPACPFSQKDKEVAERVLEFDIGWLAEPIFGSGDYPWVMRDWLNQRNNFLLPYFTEDEKKLIQGTFDFLALSHYTTILVDSEKEDPIKYNDYLEVQEMTDITWLNSPSQVAVVPWGLRKVLNWLKFKYGDLPMYIISNGIDDGLHAEDDQLRVYYMQNYINEALKAHILDGINLCGYFAYSFNDRTAPRFGLYRYAADQFEPKASMKHYRKIIDSNGFPGPETLERFCPEEFTVCTECSFFHTRKS
modifications: left off: small tags and cut ends
notes: recombinant soluble α-klotho ectodomain, mouse aa 35-982 and human aa 34-981, FLAG- or Strep/His-tagged, purified from HEK293 cells
- binding in the sKL detection assay, total cell lysates (FGF23 and FGFR1c; lysates of stably transfected HEK293T cells): strong signal
- binding activity relative to Com.sKL (FGF23 and FGFR1c; purified proteins): approximately 7 ×
- binding of coated FGF23 to Fc-FGFR1c (FGF23 binding to FGFR1c): highest FGF23-sKL affinities; also recorded: increased; also recorded: the strongest
